The text below walks through data of US20090099029A1, “Methods and substrates for conducting assays” (Invitrogen Corporation, priority 2005, published 2009).

B1: MAPK12(p38gamma) (protein)
chain: MSSPPPARSGFYRQEVTKTAWEVRAVYRDLQPVGSGAYGAVCSAVDGRTGAKVAIKKLYRPFQSELFAKRAYRELRLLKHMRHENVIGLLDVFTPDETLDDFTDFYLVMPFMGTDLGKLMKHEKLGEDRIQFLVYQMLKGLRYIHAAGIIHRDLKPGNLAVNEDCELKILDFGLARQADSEMTGYVVTRWYRAPEVILNWMRYTQTVDIWSVGCIMAEMITGKTLFKGSDHLDQLKEIMKVTGTPPAEFVQRLQSDEAKNYMKGLPELEKKDFASILTNASPLAVNLLEKMLVLDAEQRVTAGEALAHPYFESLHDTEDEPQVQKYDDSFDDVDRTLDEWKRVTYKEVLSFKPPRQLGARVSKETPL
modifications: left off: small tags and cut ends
B2: MAPK13(p38delta) (protein)
chain: MSLIRKKGFYKQDVNKTAWELPKTYVSPTHVGSGAYGSVCSAIDKRSGEKVAIKKLSRPFQSEIFAKRAYRELLLLKHMQHENVIGLLDVFTPASSLRNFYDFYLVMPFMQTDLQKIMGMEFSEEKIQYLVYQMLKGLKYIHSAGVVHRDLKPGNLAVNEDCELKILDFGLARHADAEMTGYVVTRWYRAPEVILSWMHYNQTVDIWSVGCIMAEMLTGKTLFKGKDYLDQLTQILKVTGVPGTEFVQKLNDKAAKSYIQSLPQTPRKDFTQLFPRASPQAADLLEKMLELDVDKRLTAAQALTHPFFEPFRDPEEETEAQQPFDDSLEHEKLTVDEWKQHIYKEIVNFSPIARKDSRRRSGMKL
modifications: left off: small tags and cut ends
B3: MAP3K5(ASK1) (protein)
chain: MSTEADEGITFSVPPFAPSGFCTIPEGGICRRGGAAAVGEGEEHQLPPPPPGSFWNVESAAAPGIGCPAATSSSSATRGRGSSVGGGSRRTTVAYVINEASQGQLVVAESEALQSLREACETVGATLETLHFGKLDFGETTVLDRFYNADIAVVEMSDAFRQPSLFYHLGVRESFSMANNIILYCDTNSDSLQSLKEIICQKNTMCTGNYTFVPYMITPHNKVYCCDSSFMKGLTELMQPNFELLLGPICLPLVDRFIQLLKVAQASSSQYFRESILNDIRKARNLYTGKELAAELARIRQRVDNIEVLTADIVINLLLSYRDIQDYDSIVKLVETLEKLPTFDLASHHHVKFHYAFALNRRNLPGDRAKALDIMIPMVQSEGQVASDMYCLVGRIYKDMFLDSNFTDTESRDHGASWFKKAFESEPTLQSGINYAVLLLAAGHQFESSFELRKVGVKLSSLLGKKGNLEKLQSYWEVGFFLGASVLANDHMRVIQASEKLFKLKTPAWYLKSIVETILIYKHFVKLTTEQPVAKQELVDFWMDFLVEATKTDVTVVRFPVLILEPTKIYQPSYLSINNEVEEKTISIWHVLPDDKKGIHEWNFSASSVRGVSISKFEERCCFLYVLHNSDDFQIYFCTELHCKKFFEMVNTITEEKGRSTEEGDCESDLLEYDYEYDENGDRVVLGKGTYGIVYAGRDLSNQVRIAIKEIPERDSRYSQPLHEEIALHKHLKHKNIVQYLGSFSENGFIKIFMEQVPGGSLSALLRSKWGPLKDNEQTIGFYTKQILEGLKYLHDNQIVHRDIKGDNVLINTYSGVLKISDFGTSKRLAGINPCTETFTGTLQYMAPEIIDKGPRGYGKAADIWSLGCTIIEMATGKPPFYELGEPQAAMFKVGMFKVHPEIPESMSAEAKAFILKCFEPDPDKRACANDLLVDEFLKVSSKKKKTQPKLSALSAGSNEYLRSISLPVPVLVEDTSSSSEYGSVSPDTELKVDPFSFKTRAKSCGERDVKGIRTLFLGIPDENFEDHSAPPSPEEKDSGFFMLRKDSERRATLHRILTEDQDKIVRNLMESLAQGAEEPKLKWEHITTLIASLREFVRSTDRKIIATTLSKLKLELDFDSHGISQVQVVLFGFQDAVNKVLRNHNIKPHWMFALDSIIRKAVQTAITILVPELRPHFSLASESDTADQEDLDVEDDHEEQPSNQTVRRPQAVIEDAVATSGVSTLSSTVSHDSQSAHRSLNVQLGRMKIETNRLLEELVRKEKELQALLHRAIEEKDQEIKHLKLKSQPIEIPELPVFHLNSSGTNTEDSELTDWLRVNGADEDTISRFLAEDYTLLDVLYYVTRDDLKCLRLRGGMLCTLWKAIIDFRNKQT
modifications: left off: a dimerising Fc or GST
B4: MAP3K9(MLK1) (protein)
chain: MEPSRALLGCLASAAAAAPPGEDGAGAGAEEEEEEEEEAAAAVGPGELGCDAPLPYWTAVFEYEAAGEDELTLRLGDVVEVLSKDSQVSGDEGWWTGQLNQRVGIFPSNYVTPRSAFSSRCQPGGEDPSCYPPIQLLEIDFAELTLEEIIGIGGFGKVYRAFWIGDEVAVKAARHDPDEDISQTIENVRQEAKLFAMLKHPNIIALRGVCLKEPNLCLVMEFARGGPLNRVLSGKRIPPDILVNWAVQIARGMNYLHDEAIVPIIHRDLKSSNILILQKVENGDLSNKILKITDFGLAREWHRTTKMSAAGTYAWMAPEVIRASMFSKGSDVWSYGVLLWELLTGEVPFRGIDGLAVAYGVAMNKLALPIPSTCPEPFAKLMEDCWNPDPHSRPSFTNILDQLTTIEESGFFEMPKDSFHCLQDNWKHEIQEMFDQLRAKEKELRTWEEELTRAALQQKNQEELLRRREQELAEREIDILERELNIIIHQLCQEKPRVKK
modifications: left off: a dimerising Fc or GST
B5: EPHA4 (protein)
chain: SRRRSKYSKAKQEADEEKHLNQGVRTYVDPFTYEDPNQAVREFAKEIDASCIKIEKVIGVGEFGEVCSGRLKVPGKREICVAIKTLKAGYTDKQRRDFLSEASIMGQFDHPNIIHLEGVVTKCKPVMIITEYMENGSLDAFLRKNDGRFTVIQLVGMLRGIGSGMKYLSDMSYVHRDLAARNILVNSNLVCKVSDFGMSRVLEDDPEAAYTTRGGKIPIRWTAPEAIAYRKFTSASDVWSYGIVMWEVMSYGERPYWDMSNQDVIKAIEEGYRLPPPMDCPIALHQLMLDCWQKERSDRPKFGQIVNMLDKLIRNPNSLKRTGTESSRPNTALLDPSSPEFSAVVSVGDWLQAIKMDRYKDNFTAAGYTTLEAVVHVNQEDLARIGITAITHQNKILSSVQAMRTQMQQMHGRMVPV
modifications: left off: a dimerising Fc or GST
B6: MAP4K4(HGK) (protein)
chain: MANDSPAKSLVDIDLSSLRDPAGIFELVEVVGNGTYGQVYKGRHVKTGQLAAIKVMDVTEDEEEEIKLEINMLKKYSHHRNIATYYGAFIKKSPPGHDDQLWLVMEFCGAGSITDLVKNTKGNTLKEDWIAYISREILRGLAHLHIHHVIHRDIKGQNVLLTENAEVKLVDFGVSAQLDRTVGRRNTFIGTPYWMAPEVIACDENPDATYDYRSDLWSCGITAIEMAEGAPPLCDMHPMRALFLIPRNPPPRLKSKKWSKKFFSFIEGCLVKNYMQRPSTEQLLKHPFIRDQPNERQVRIQLKDHIDRTRKKRGEKDETEYEYSGSEE
modifications: left off: a dimerising Fc or GST
B7: MAPK11(p38B) (protein)
chain: MSGPRAGFYRQELNKTVWEVPQRLQGLRPVGSGAYGSVCSAYDARLRQKVAVKKLSRPFQSLIHARRTYRELRLLKHLKHENVIGLLDVFTPATSIEDFSEVYLVTTLMGADLNNIVKCQALSDEHVQFLVYQLLRGLKYIHSAGIIHRDLKPSNVAVNEDCELRILDFGLARQADEEMTGYVATRWYRAPEIMLNWMHYNQTVDIWSVGCIMAELLQGKALFPGSDYIDQLKRIMEVVGTPSPEVLAKISSEHARTYIQSLPPMPQKDLSSIFRGANPLAIDLLGRMLVLDSDQRVSAAEALAHAYFSQYHDPEDEPEAEPYDESVEAKERTLEEWKELTYQEVLSFKPPEPPKPPGSLEIEQ
modifications: left off: small tags and cut ends
B8: MAPK14(p38alpha) (protein)
chain: MSQERPTFYRQELNKTIWEVPERYQNLSPVGSGAYGSVCAAFDTKTGLRVAVKKLSRPFQSIIHAKRTYRELRLLKHMKHENVIGLLDVFTPARSLEEFNDVYLVTHLMGADLNNIVKCQKLTDDHVQFLIYQILRGLKYIHSADIIHRDLKPSNLAVNEDCELKILDFGLARHTDDEMTGYVATRWYRAPEIMLNWMHYNQTVDIWSVGCIMAELLTGRTLFPGTDHINQLQQIMRLTGTPPAYLINRMPSHEARNYIQSLTQMPKMNFANVFIGANPLAVDLLEKMLVLDSDKRITAAQALAHAYFAQYHDPDDEPVADPYDQSFESRDLLIDEWKSLTYDEVISFVPPPLDQEEMES
modifications: left off: a dimerising Fc or GST
B9: MAP3K2(MEKK2) (protein)
chain: MDDQQALNSIMQDLAVLHKASRPALSLQETRKAKSSSPKKQNDVRVKFEHRGEKRILQFPRPVKLEDLRSKAKIAFGQSMDLHYTNNELVIPLTTQDDLDKAVELLDRSIHMKSLKILLVINGSTQATNLEPLPSLEDLDNTVFGAERKKRLSIIGPTSRDRSSPPPGYIPDELHQVARNGSFTSINSEGEFIPESMDQMLDPLSLSSPENSGSGSCPSLDSPLDGESYPKSRMPRAQSYPDNHQEFSDYDNPIFEKFGKGGTYPRRYHVSYHHQEYNDGRKTFPRARRTQGTSLRSPVSFSPTDHSLSTSSGSSIFTPEYDDSRIRRRGSDIDNPTLTVMDISPPSRSPRAPTNWRLGKLLGQGAFGRVYLCYDVDTGRELAVKQVQFDPDSPETSKEVNALECEIQLLKNLLHERIVQYYGCLRDPQEKTLSIFMEYMPGGSIKDQLKAYGALTENVTRKYTRQILEGVHYLHSNMIVHRDIKGANILRDSTGNVKLGDFGASKRLQTICLSGTGMKSVTGTPYWMSPEVISGEGYGRKADIWSVACTVVEMLTEKPPWAEFEAMAAIFKIATQPTNPKLPPHVSDYTRDFLKRIFVEAKLRPSADELLRHMFVHYH
modifications: left off: a dimerising Fc or GST

This data set has as its system kinases of Table 6 on Myelin Basic Protein (MBP). Briefly: Kinase assay using MBP substrate, ProQ Diamond stain (Table 6). It counts as biochemical. The note with it: kinase printed on MBP-coated slide; 20 uM ATP, 30° C.; ProQ Diamond Microarray Stain; graded Strong/Weak/Negative. Here is the method:
In this illustrative example, four-well slides were designed with a hydrophobic mask surrounding 4-wells of aldehyde- or epoxy-coated glass (smooth or ES grade; Erie Scientific (Portsmouth, N.H.)). […] Bovine, dephosphorylated, Myelin Basic Protein (MBP) was purchased from Upstate Biotechnology (#13-110). MBP was diluted to 1 mg/ml in PBS, applied to the slide surface, covered with a coverslip, and left overnight at 4° C. to coat the slide with the MBP. Slides were washed 3 times with water and spun dry before printing.
Kinases were purchased from Panvera (Invitrogen, Carlsbad, Calif.), diluted in printing buffer (50 mM Tris pH 7.5, 25% glyercol, 0.05% TritonX-100, 2 mM DTT) and deposited using a GeneMachine OmniGrid100. Slides were stored at −20° C.
Reactions were performed following removal of the slide from the freezer. Reaction buffer (20 mM HEPES pH 7.5, 4 mM MgCl2, 2 mM DTT, 20 uM ATP, 5% DMSO) was added with or without inhibitor, a coverslip applied, and the slide placed at 30° C. for the appropriate reaction time. The slide was washed with water to stop the reaction (3 times) and spun dry. ProQ Diamond Microarray Stain (Invitrogen #P33706) was applied, covered with a coverslip, and the slide was incubated in the dark at room temperature for 30 minutes. The slide was destained and washed three times with water, and spun dry.
As to B1, the “MBP Kinase Activity” value is “Strong”.
On to B2, for which the “MBP Kinase Activity” value was “Weak”.
As for B3, the “MBP Kinase Activity” value is “Weak”.
To B4 belongs “Strong”.
With B5 the entry was “Strong”; with B6, “Strong”; with B7, “Strong”.
Take B8: the “MBP Kinase Activity” value is given as “Strong”.
On to B9, for which the “MBP Kinase Activity” value is “Weak”.
